From PMC7703752, “Proteome-level assessment of origin, prevalence and function of leucine-aspartic acid (LD) motifs” (Bioinformatics, 2019)
Where no end group is shown, it is not given here. The star is where a group is joined. FITC = O=C1OC2(c3ccc(O)cc3Oc3cc(O)ccc32)c2ccc(NC(=S)*)cc21; Ahx = NCCCCCC(=O)O

T1: FAT domain of human FAK (892-1052) (human, UniProt Q05397 892-1052)
T1 construct: focal adhesion kinase (FAK), human, FAT domain, residues 892-1052; 15N-labelled (M9 minimal medium) in the NMR titrations; also called FAK FAT; focal adhesion targeting domain; source: E. coli BL21, expressed as GST-fusion protein (pGexP2), purified as described previously (Arold et al., 2002)
T1 sequence (looked up): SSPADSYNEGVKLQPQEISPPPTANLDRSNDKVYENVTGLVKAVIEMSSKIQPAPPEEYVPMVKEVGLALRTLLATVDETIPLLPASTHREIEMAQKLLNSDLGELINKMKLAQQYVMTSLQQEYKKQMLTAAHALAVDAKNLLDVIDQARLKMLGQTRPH

T2: Human α-parvin-CHC (residues 242-372) (human, UniProt Q9NVD7 242-372)
T2 construct: α-parvin, human, C-terminal CH domain, residues 242-372; also called second CH domain of α-parvin; source: E. coli BL21, expressed as GST-fusion protein (pGex 6P1), purified as described previously (Lorenz et al., 2008)
T2 sequence (looked up): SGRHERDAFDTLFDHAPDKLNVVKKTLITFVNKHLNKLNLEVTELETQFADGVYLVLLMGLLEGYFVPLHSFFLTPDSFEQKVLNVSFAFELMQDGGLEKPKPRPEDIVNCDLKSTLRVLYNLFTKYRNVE

T3: Human α-parvin-CHC (residues 242–372) (human, UniProt Q9NVD7 242-372)
T3 chain: T2 sequence (looked up)

T4: FAT domain of human FAK (892–1052) (human, UniProt Q05397 892-1052)
T4 chain: T1 sequence (looked up)

T5: rat GIT1 (647-770) (rat, UniProt Q9Z272 647-770)
T5 chain: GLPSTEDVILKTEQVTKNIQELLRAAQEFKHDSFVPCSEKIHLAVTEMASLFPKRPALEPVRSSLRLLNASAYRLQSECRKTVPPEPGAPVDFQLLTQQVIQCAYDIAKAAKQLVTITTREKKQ

T6: Human α-parvin-CHC (residues 242–372) (human, UniProt Q9NVD7 242-372)
T6 construct: α-parvin, human, second CH domain (CHC), residues 242-372; Purification and fate of the GST are told only in the Supplementary Material and in the cited work (Lorenz et al., 2008); also called second CH domain of α-parvin; source: E. coli BL21, expressed as GST-fusion protein
T6 sequence (looked up): T2 sequence (looked up)

T7: FAT domain of human FAK (892–1052) (human, UniProt Q05397 892-1052)
T7 construct: focal adhesion kinase (FAK), human, FAT domain, residues 892-1052; 15N-labelled for the NMR titrations; Purification and fate of the GST are told only in the Supplementary Material and in the cited work (Arold et al., 2002); also called FAK FAT; four-helix FAT domain from FAK; source: E. coli BL21, expressed as GST-fusion protein
T7 sequence (looked up): T1 sequence (looked up)

T8: rat GIT1 (647-770) (rat, UniProt Q9Z272 647-770)
T8 construct: also called GIT1 FAH; GIT1 FAH domain; source: E. coli BL21, expressed as GST-fusion protein (pGex-4T1), purified as described previously (Schmalzigaug et al., 2007)
T8 sequence (looked up): T5 chain

B1: paxillin LD4 peptide, unlabelled (peptide)
peptide: SASSATRELDELMASLSD
notes: paxillin, human, LD4 motif with flanking residues; form without label, used in ACA, DSF, ITC and NMR; source: synthetic peptide, bought: GenScript
B2: C16orf71 LD motif peptide, FITC-Ahx-labelled (peptide)
peptide: {FITC-Ahx}-EAWDLDDILQSLQGQ
notes: Uncharacterized protein C16orf71, human; core motif 267-276; labelled form, used in direct anisotropy and MST; also called CP071; source: synthetic peptide, bought: GenScript
B3: paxillin LD4 peptide, FITC-Ahx-labelled (peptide)
peptide: {FITC-Ahx}-SASSATRELDELMASLSD
notes: paxillin, human, LD4 motif with flanking residues; also called labelled LD4; FITC-Ahx-labelled LD4; source: synthetic peptide, bought: GenScript
B4: RALGAPA1 LD motif peptide (peptide)
peptide: EDVLDELLQYLGVT
modifications: also: N-terminal FITC-Ahx only in labelled form
notes: predicted LD motif of human RALGAPA1; also called RGPA1; source: synthetic peptide, bought: GenScript
B5: EPB41L5 (Band 4.1-like protein 5) LD motif peptide (peptide)
peptide: ATDELDALLASLTENLID
modifications: also: N-terminal FITC-Ahx only in labelled form
notes: predicted LD motif of human EPB41L5 (Band 4.1-like protein 5); also called E41L5; YMO1; source: synthetic peptide, bought: GenScript
B6: RALGAPA1 LD motif peptide, FITC-Ahx-labelled (peptide)
peptide: {FITC-Ahx}-EDVLDELLQYLGVT
notes: core motif 1680-1689; labelled form, used in direct anisotropy and MST; also called RGPA1; source: synthetic peptide, bought: GenScript

Columns and labels:
[1] = molecular target: T1, FAT domain of human FAK (892-1052); assay: differential scanning fluorimetry; 10 μM protein, peptide at 100 and 250 μM, SYPRO Orange; 20 mM HEPES pH 7.5, 150 mM NaCl, 2 mM EDTA, 1 mM TCEP; 20 to 95 °C; settings: both partners purified
[2] = molecular target: T2, Human α-parvin-CHC (residues 242-372); assay: fluorescence polarisation; anisotropy competition assay (ACA): 10 μM FAT or 25 μM α-parvin with 0.1 μM FITC-Ahx-LD4; unlabelled peptide added at 100 and 250 μM; settings: both partners purified
[3] = molecular target: T2, Human α-parvin-CHC (residues 242-372); assay: fluorescence polarisation + MST; the 'quantitative' methods, summed up in one sentence for each peptide: direct anisotropy (protein serially diluted, FITC-Ahx peptide 0.1 μM; 20 mM HEPES pH 7.5, 150 mM NaCl, 2 mM EDTA, 2 mM DTT, 0.005% Tween-20; room temperature) and MST (protein diluted from 560 μM FAT or 530 μM α-parvin, labelled peptide 0.1 μM, 0.05% Tween-20, 25 °C); ITC in selected cases; settings: both partners purified
[4] = molecular target: T1, FAT domain of human FAK (892-1052); assay: as above; settings: both partners purified
[5] = molecular target: T2, Human α-parvin-CHC (residues 242-372); assay: fluorescence polarisation; direct anisotropy: FAT or α-parvin titrated, FITC-Ahx-labelled LD4 at 0.1 μM; 20 mM HEPES pH 7.5, 150 mM NaCl, 2 mM EDTA, 2 mM DTT, 0.005% Tween-20; room temperature; settings: both partners purified
[6] = molecular target: T1, FAT domain of human FAK (892-1052); assay: as above; settings: both partners purified
[7] = molecular target: T3, Human α-parvin-CHC (residues 242–372); assay: MST
[8] = molecular target: T4, FAT domain of human FAK (892–1052); assay: MST
[9] = molecular target: T5, rat GIT1 (647-770); assay: MST
[10] = molecular target: T6, Human α-parvin-CHC (residues 242–372); assay: fluorescence polarisation + MST + ITC + other: differential scanning fluorimetry; synthesized peptides against recombinant LDBDs in vitro; direct anisotropy with labelled candidate peptides, anisotropy competition of unlabelled peptides against fluorescently labelled known LD motifs, ITC, MST and DSF summed up together; 25°C, 20 mM HEPES pH 7.5, 150 mM NaCl, 2 mM EDTA, 1 mM TCEP, unless stated otherwise; settings: both partners purified
[11] = molecular target: T7, FAT domain of human FAK (892–1052); assay: as above; settings: both partners purified
[12] = molecular target: T3, Human α-parvin-CHC (residues 242–372); assay: FP
[13] = molecular target: T4, FAT domain of human FAK (892–1052); assay: FP
[14] = molecular target: T5, rat GIT1 (647-770); assay: FP
[15] = molecular target: T4, FAT domain of human FAK (892–1052); assay: ITC
[16] = molecular target: T5, rat GIT1 (647-770); assay: ITC
[17] = molecular target: T8, rat GIT1 (647-770); assay: fluorescence polarisation + MST; 'additional DA and MST experiments' with GIT1: GIT1 serially diluted (MST from 630 μM, standard capillaries, 25 °C), FITC-Ahx peptide 0.1 μM; 20 mM HEPES pH 7.5, 150 mM NaCl, 2 mM EDTA, 2 mM DTT, Tween-20; settings: both partners purified
[18] = molecular target: T2, Human α-parvin-CHC (residues 242-372); assay: fluorescence polarisation + MST; the 'quantitative' methods, summed up in one sentence for each peptide: direct anisotropy (protein serially diluted, FITC-Ahx peptide 0.1 μM; 20 mM HEPES pH 7.5, 150 mM NaCl, 2 mM EDTA, 2 mM DTT, 0.005% Tween-20; room temperature) and MST (protein diluted from 560 μM FAT or 530 μM α-parvin, labelled peptide 0.1 μM, 0.05% Tween-20, 25 °C); ITC in selected cases; settings: both partners purified; remark: listed apart in the source
[19] = molecular target: T1, FAT domain of human FAK (892-1052); assay: as above; settings: both partners purified; remark: listed apart in the source

Row | Binder | Kd [7] | Kd [8] | binding result [10] | binding result [11] | Kd [12] | Kd [13] | Kd [14] | also measured
1 | B1 |  |  |  |  |  |  |  | binding result [1]: binds; binding result [2]: binds
2 | B2 |  |  |  |  |  |  |  | binding result [3]: binds; binding result [4]: binds
3 | B3 |  |  |  |  |  |  |  | Kd [5]: 25 µM; Kd [6]: 10 µM
4 | B4 | 25.7 µM | 42.5 µM | binds | binds | 49.4 µM | 43.6 µM | 88 µM | Kd [9]: 77.5 µM
5 | B5 | 4 µM | 13 µM | binds | binds | 28.2 µM | 2.7 µM | 83.6 µM | Kd [15]: 6 µM; Kd [16]: 39.3 µM
6 | B6 |  |  |  |  |  |  |  | Kd [17]: ~80 µM; binding result [18]: binds; binding result [19]: binds
